According to US20220162313A1 (Xencor, published 2022):

Biological target: T1, human SSTR2 (human, UniProt P30874 1-369)
T1 construct: whole, on cells; also called human somatostatin receptor 2; cell surface human SSTR2
Experiment: flow cytometry on human SSTR2-transfected CHO cells, PE-labeled secondary antibody
Protocol: Cell surface binding of anti-SSTR2 antibodies and exemplary anti-SSTR2×anti-CD3 bispecific antibodies were assessed using human SSTR2-transfected CHO cells. Cells were incubated with indicated test articles for 45 minutes on ice and centrifuged. Cells were resuspended with staining buffer containing phycoerythrin (PE) labeled secondary antibody (2 μg/mL; goat anti-human IgG) and then incubated for 45 minutes on ice. Cells were centrifuged twice and then resuspsended with staining buffer. Binding was measured by flow cytometry (FIGS. 17A-P).
Cell surface binding of XmAb18087 and control anti-RSV×anti-CD3 bispecific antibody (XENP13245) were assessed using humanSSTR2-transfected CHO cells and cynoSSTR2-transfected CHO cells. Cell surface binding was also assessed using parental CHO cells as control. Binding was measured by flow cytometry using phycoerythrin (PE) labeled secondary antibody as generally described in Example 1C.

T1 sequence (P30874 whole entry): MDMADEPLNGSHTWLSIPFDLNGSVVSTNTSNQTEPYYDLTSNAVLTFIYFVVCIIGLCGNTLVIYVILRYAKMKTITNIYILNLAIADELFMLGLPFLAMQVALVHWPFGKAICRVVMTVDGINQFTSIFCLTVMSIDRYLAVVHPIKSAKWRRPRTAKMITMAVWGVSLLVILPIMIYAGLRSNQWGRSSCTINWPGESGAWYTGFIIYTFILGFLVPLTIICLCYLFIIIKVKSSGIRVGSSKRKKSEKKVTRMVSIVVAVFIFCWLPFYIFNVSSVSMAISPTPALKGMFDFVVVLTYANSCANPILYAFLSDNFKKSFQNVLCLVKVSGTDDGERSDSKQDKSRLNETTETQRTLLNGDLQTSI

binding result: binds
B1: XmAb18087 (bispecific antibody)
heavy: EVQLVESGGGLVQPGGSLRLSCAASGFTFSDYGMAWFRQAPGKGLEWVSFISNLGYSIYYADSVKGRFTISRDNAKNSLYLQMNSLRAEDTAVYYCARAPYDYDSFDPMDYWGQGTLVTVSSASTKGPSVFPLAPSSKSTSGGTAALGCLVKDYFPEPVTVSWNSGALTSGVHTFPAVLQSSGLYSLSSVVTVPSSSLGTQTYICNVNHKPSDTKVDKKVEPKSCDKTHTCPPCPAPPVAGPSVFLFPPKPKDTLMISRTPEVTCVVVDVKHEDPEVKFNWYVDGVEVHNAKTKPREEEYNSTYRVVSVLTVLHQDWLNGKEYKCKVSNKALPAPIEKTISKAKGQPREPQVYTLPPSREEMTKNQVSLTCDVSGFYPSDIAVEWESDGQPENNYKTTPPVLDSDGSFFLYSKLTVDKSRWEQGDVFSCSVMHEALHNHYTQKSLSLSPGK
chain: not shown
light: not shown
notes: also called XENP18087; XENP018087
